# Data: patent EP4814014A1, “BINDING MOLECULE AND ANTIBODY-DRUG CONJUGATE AND USE THEREOF” (priority 2023, dated 2025)
# Changes are numbered by the printed parent chain. Names and notes keep the numbering of the source.
# B1: pn7A12.N32X.m1 (VHH, not shown: small tags and cut ends)
# VHH: EVQLVESGGGLVQAGGSLRLSCVASGNIFSSYHMGWFRQAPGKQREFIAYITTREITNYADSVKGRFTISRDNTKNTVYLQMNVLKPEDTAVYYCIADQSREIRRSWGQGTQVTVSS
# notes: PTM-removal anti-cMet VHH-His
# B2: dpzn7A12m4.m1_3 (VHH, not shown: small tags and cut ends)
# VHH: B1 VHH with V12I, V23T, T74A, V84S, K86R, Q112L
# notes: Humanized + PTM removal + primary immunogenicity removal, anti-cMet VHH-His
# B3: pn7A12.N32X.m4 (VHH, not shown: small tags and cut ends)
# VHH: B1 VHH with Y32F
# notes: PTM-removal anti-cMet VHH-His
# B4: pn7A12.N32X.m6 (VHH, not shown: small tags and cut ends)
# VHH: B1 VHH with Y32D
# notes: PTM-removal anti-cMet VHH-His
# B5: pn7A12.N32X.m3 (VHH, not shown: small tags and cut ends)
# VHH: B1 VHH with Y32H
# notes: PTM-removal anti-cMet VHH-His
# B6: dpzn7A12m4.m1_1 (VHH, not shown: small tags and cut ends)
# VHH: B1 VHH with V12I, V23T, T74S, V78L, V84S, K86R, P87A, Q112L
# notes: as for B2
# B7: VHH10 (VHH, not shown: small tags and cut ends)
# VHH: QSQLVESGGGLVKPGGSLRLSCVASGFTISRSIMSWYRQAPGKERDWVASIGSAGNTNYVDSVKGRFTISRDNAKNSLYLQMNSLRAEDTAVYYCKTTLAVSFSEYWGQGTLVTVSS
# notes: Humanized 9A2 anti-cMet VHH-His; also called hu9A2
# B8: VHH8 (VHH, not shown: small tags and cut ends)
# VHH: B7 VHH with Q1E, V5L, K13Q, A74S, S77T, L78V
# notes: Humanized 9A2 anti-cMet VHH-His
# B9: VHH9 (VHH, not shown: small tags and cut ends)
# VHH: B7 VHH with Q1E, V5L, K13Q, N73V, A74S, S77T
# notes: as for B8
# B10: zn9B8.m2 (VHH, not shown: small tags and cut ends)
# VHH: EVQLLESGGGLVQPGGSLRLSCAASGLTFSYYAMAWFRQAPGKEREFVAAINWNGGNTYNTDSVKGRFTISRDNSKNTVYLQMNSLTPEDTAVYYCAVRYNSASYLVARSSDYNYWGQGTLVTVSS
# notes: Humanized anti-EGFR VHH-His
# B11: pzn9B8.m2.m11 (VHH, not shown: small tags and cut ends)
# VHH: B10 VHH with G55Q, S102Q
# notes: Humanized + PTM-removal anti-EGFR VHH-His; also called hu9B8
# B12: pzn9B8.m2.m12 (VHH, not shown: small tags and cut ends)
# VHH: B10 VHH with G55A, S102A
# notes: Humanized + PTM-removal anti-EGFR VHH-His
# B13: V-n9A10 anti-cMet VHH-Fc (Fc fusion, not shown: a dimerising Fc or GST)
# chain: QVQLVESGGGLVQPGGSLRLSCEASGFTFSSYVMSWYRQAPGKERELVALISSTTGSSTKYGDSVKGRFTISRDNAKNTVYLQMNSLKPEDTAVYYCNAMIGWNNHWGQGTHVTVSS
# B14: pzn10A1_m6m5 (VHH, not shown: small tags and cut ends)
# VHH: QVQLVESGGGLVQPGGSLRLSCAASGRTGSLHAMGWFRQAPGKERERVATLNLSDVSAVTADSVKGRFTISTDNSKNSVYLQMNSLRAEDTAVYYCTASRSPSGIRYYKPDYWGQGTLVTVSS
# B15: ppzn10A1_m6m5.m3 (VHH, not shown: small tags and cut ends)
# VHH: B14 VHH with N52Q
# B16: ppzn10A1_m6m5.m1 (VHH, not shown: small tags and cut ends)
# VHH: B14 VHH with N52R
# B17: V-7 (9B8-9A2-7A12) (bispecific antibody)
# chain: QVQLVESGGGLVQPGGSLRLSCAASGLTFSYYAMAWFRQAPGKEREFVAAINWNGGNTYNTDSVKGRFTISRDNAKNTVYLQMNSLKPEDTAVYYCAVRYNSASYLVARSSDYNYWGQGTLVTVSSGGGGSQSQLAESGGGLVQSGGSLGLSCVASGFTISRSIMSWYRQPPGKERDWVASIGSAGNTNYVDSVKGRFTISRDVAKNTVYLQMNSLKPEDTAVYYCKTTLAVSFSEYWGQGTQVTVSSGGGGSGGGGSEVQLVESGGGLVQAGGSLRLSCVASGNIFSSNHMGWFRQAPGKQREFIAYITTREITNYADSVKGRFTISRDNTKNTVYLQMNVLKPEDTAVYYCIADQSREIRRSWGQGTQVTVSS
# notes: Single-chain trispecific anti-EGFR/cMet antibody
# B18: V-15 (10A1-7A12-9A2) (bispecific antibody)
# chain: QVQLVESGGGLVQAGGSLRLSCAASGRTGSLHAMGWFRQAPGKERERVATLNLSDGSAVTADSVKGRFTISTDNTKNSVYLQMNSLKPEDTAVYYCTASRSPSGIRYYKPDYWGQGTQVTVSSGGGGSEVQLVESGGGLVQAGGSLRLSCVASGNIFSSNHMGWFRQAPGKQREFIAYITTREITNYADSVKGRFTISRDNTKNTVYLQMNVLKPEDTAVYYCIADQSREIRRSWGQGTQVTVSSGGGGSGGGGSQSQLAESGGGLVQSGGSLGLSCVASGFTISRSIMSWYRQPPGKERDWVASIGSAGNTNYVDSVKGRFTISRDVAKNTVYLQMNSLKPEDTAVYYCKTTLAVSFSEYWGQGTQVTVSS
# notes: as for B17
# B19: V-9 (9B8-7A12-9A2) (bispecific antibody)
# chain: QVQLVESGGGLVQPGGSLRLSCAASGLTFSYYAMAWFRQAPGKEREFVAAINWNGGNTYNTDSVKGRFTISRDNAKNTVYLQMNSLKPEDTAVYYCAVRYNSASYLVARSSDYNYWGQGTLVTVSSGGGGSEVQLVESGGGLVQAGGSLRLSCVASGNIFSSNHMGWFRQAPGKQREFIAYITTREITNYADSVKGRFTISRDNTKNTVYLQMNVLKPEDTAVYYCIADQSREIRRSWGQGTQVTVSSGGGGSGGGGSQSQLAESGGGLVQSGGSLGLSCVASGFTISRSIMSWYRQPPGKERDWVASIGSAGNTNYVDSVKGRFTISRDVAKNTVYLQMNSLKPEDTAVYYCKTTLAVSFSEYWGQGTQVTVSS
# notes: as for B17
# B20: V-13 (10A1-9A2-7A12) (bispecific antibody)
# chain: QVQLVESGGGLVQAGGSLRLSCAASGRTGSLHAMGWFRQAPGKERERVATLNLSDGSAVTADSVKGRFTISTDNTKNSVYLQMNSLKPEDTAVYYCTASRSPSGIRYYKPDYWGQGTQVTVSSGGGGSQSQLAESGGGLVQSGGSLGLSCVASGFTISRSIMSWYRQPPGKERDWVASIGSAGNTNYVDSVKGRFTISRDVAKNTVYLQMNSLKPEDTAVYYCKTTLAVSFSEYWGQGTQVTVSSGGGGSGGGGSEVQLVESGGGLVQAGGSLRLSCVASGNIFSSNHMGWFRQAPGKQREFIAYITTREITNYADSVKGRFTISRDNTKNTVYLQMNVLKPEDTAVYYCIADQSREIRRSWGQGTQVTVSS
# notes: as for B17
# B21: V-n5B10 anti-EGFR VHH-His (VHH, not shown: small tags and cut ends)
# VHH: AVQLVDSGGGLVQPGGSLRLDCSASGTIIGTYTMAWYRQAPGKQREMVAIITPGGGSHHADSVKGRFTISRDNGKSTVYLQMSSLKFEDTAVYYCNAKARWGTTEYWGQGTQVTVSS
# notes: Monovalent parent VHH
# Columns and labels:
# [1] = target: T1, human cMet on cells (human, UniProt P08581 25-1390); assay: FACS, VHH-His on MKN45 cells
# T1 construct: whole, on cells; Cell lines: CHO-S-cMet, CHOK1-hucMet, EBC-1, MKN45, NCI-H1975; the cell line is named under assay; also called CHO-S-cMet; CHOK1-hucMet
# T1 sequence (P08581 25-1390): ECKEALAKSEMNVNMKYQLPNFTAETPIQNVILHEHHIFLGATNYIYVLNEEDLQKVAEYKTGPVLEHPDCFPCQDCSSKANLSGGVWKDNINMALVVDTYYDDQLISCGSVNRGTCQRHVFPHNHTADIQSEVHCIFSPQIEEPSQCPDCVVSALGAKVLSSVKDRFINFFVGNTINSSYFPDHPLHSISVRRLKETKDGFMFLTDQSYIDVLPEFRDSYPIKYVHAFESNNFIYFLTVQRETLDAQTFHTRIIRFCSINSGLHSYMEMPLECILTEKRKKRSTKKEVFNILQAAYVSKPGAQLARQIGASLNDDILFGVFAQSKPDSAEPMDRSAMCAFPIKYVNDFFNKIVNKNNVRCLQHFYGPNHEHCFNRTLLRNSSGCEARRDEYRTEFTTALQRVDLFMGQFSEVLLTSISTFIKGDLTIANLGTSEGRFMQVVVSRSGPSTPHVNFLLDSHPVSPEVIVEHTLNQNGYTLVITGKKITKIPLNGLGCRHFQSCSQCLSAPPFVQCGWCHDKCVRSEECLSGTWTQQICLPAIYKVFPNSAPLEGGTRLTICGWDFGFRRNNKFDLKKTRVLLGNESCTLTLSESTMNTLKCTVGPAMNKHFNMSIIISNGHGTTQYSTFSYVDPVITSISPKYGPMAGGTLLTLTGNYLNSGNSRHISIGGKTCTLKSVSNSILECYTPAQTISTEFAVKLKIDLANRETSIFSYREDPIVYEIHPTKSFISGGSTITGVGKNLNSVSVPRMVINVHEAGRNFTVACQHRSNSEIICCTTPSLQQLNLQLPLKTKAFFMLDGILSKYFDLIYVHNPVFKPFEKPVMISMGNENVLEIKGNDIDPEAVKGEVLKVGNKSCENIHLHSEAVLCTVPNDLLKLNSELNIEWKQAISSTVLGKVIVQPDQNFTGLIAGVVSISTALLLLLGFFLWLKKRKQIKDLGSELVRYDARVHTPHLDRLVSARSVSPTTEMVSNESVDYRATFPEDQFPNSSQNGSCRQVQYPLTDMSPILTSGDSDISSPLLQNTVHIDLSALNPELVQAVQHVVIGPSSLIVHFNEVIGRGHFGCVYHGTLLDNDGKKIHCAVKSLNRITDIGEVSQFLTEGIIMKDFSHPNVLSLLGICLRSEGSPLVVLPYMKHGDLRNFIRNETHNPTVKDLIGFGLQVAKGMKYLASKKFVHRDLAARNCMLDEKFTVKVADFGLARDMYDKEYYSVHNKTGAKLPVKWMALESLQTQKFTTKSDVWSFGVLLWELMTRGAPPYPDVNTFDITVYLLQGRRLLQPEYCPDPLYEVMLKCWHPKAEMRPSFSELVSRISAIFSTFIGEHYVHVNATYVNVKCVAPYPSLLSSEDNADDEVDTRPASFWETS
# [2] = target: T1, human cMet on cells; assay: FACS, VHH-His on CHOK1-hucMet cells
# [3] = target: T1, human cMet on cells; assay: FACS, VHH-His on EBC-1 cells
# [4] = target: T2, human EGFR on cells (human, UniProt P00533 25-1210); assay: FACS, VHH-His on MDA-MB-468 cells
# T2 construct: whole, on cells; the cell line is named under assay; also called CHO-S-EGFR; CHOK1-huEGFR
# [5] = target: T2, human EGFR on cells; assay: FACS, VHH-His on CHOK1-huEGFR cells
# [6] = target: T1, human cMet on cells; assay: FACS competition on EBC-1 cells, HGF-His as the ligand detected, VHH-Fc from 100 nM
# [7] = target: T3, cynomolgus monkey EGFR-his (ECD, Met1-Ser645) (cynomolgus monkey, UniProt A0A2K5WK39 1-645); assay: SPR, antigen amine-coupled on GLM chip, antibody injected, 1:1 model
# T3 construct: range 1-645; Bought; range as printed includes Met1
# [8] = target: T4, human EGFR-his (ECD, Met1-Ser645) (human, UniProt P00533 25-645); assay: as above
# T4 construct: range 1-645; Bought; range as printed includes Met1
# [9] = target: T5, human cMet-his (ECD, Met1-Thr932) (human, UniProt P08581 25-932); assay: as above
# T5 construct: Bought; range as printed includes Met1
# T5 sequence (P08581 25-932): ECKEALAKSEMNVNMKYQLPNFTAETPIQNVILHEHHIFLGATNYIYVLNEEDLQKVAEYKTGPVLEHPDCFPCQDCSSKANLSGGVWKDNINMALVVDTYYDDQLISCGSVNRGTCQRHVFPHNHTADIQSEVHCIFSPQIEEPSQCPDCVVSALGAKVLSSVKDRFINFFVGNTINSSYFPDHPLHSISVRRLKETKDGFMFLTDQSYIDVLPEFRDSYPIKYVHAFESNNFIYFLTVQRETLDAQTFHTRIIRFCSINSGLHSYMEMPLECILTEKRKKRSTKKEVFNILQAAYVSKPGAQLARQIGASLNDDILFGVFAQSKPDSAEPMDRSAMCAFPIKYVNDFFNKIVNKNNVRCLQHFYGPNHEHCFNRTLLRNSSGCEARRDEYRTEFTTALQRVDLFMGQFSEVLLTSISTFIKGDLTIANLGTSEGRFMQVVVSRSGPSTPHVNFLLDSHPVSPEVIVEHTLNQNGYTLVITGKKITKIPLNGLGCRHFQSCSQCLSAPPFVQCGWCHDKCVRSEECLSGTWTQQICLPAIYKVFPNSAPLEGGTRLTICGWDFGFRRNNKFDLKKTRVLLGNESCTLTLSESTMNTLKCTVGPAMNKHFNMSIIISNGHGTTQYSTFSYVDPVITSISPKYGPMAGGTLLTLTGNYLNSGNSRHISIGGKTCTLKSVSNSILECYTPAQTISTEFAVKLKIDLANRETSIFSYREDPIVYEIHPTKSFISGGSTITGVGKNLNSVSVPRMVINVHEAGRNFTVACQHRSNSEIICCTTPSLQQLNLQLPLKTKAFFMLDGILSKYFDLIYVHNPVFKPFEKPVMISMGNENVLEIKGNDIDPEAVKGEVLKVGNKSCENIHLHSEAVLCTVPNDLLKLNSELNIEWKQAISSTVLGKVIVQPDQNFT
# [10] = target: T6, cynomolgus monkey cMet-his (ECD, Met1-Thr932) (cynomolgus monkey, UniProt A0A2K5UM36 25-932); assay: as above
# T6 construct: Bought; range as printed includes Met1
# T6 sequence (A0A2K5UM36 entry or part of it limits assumed, form in doubt): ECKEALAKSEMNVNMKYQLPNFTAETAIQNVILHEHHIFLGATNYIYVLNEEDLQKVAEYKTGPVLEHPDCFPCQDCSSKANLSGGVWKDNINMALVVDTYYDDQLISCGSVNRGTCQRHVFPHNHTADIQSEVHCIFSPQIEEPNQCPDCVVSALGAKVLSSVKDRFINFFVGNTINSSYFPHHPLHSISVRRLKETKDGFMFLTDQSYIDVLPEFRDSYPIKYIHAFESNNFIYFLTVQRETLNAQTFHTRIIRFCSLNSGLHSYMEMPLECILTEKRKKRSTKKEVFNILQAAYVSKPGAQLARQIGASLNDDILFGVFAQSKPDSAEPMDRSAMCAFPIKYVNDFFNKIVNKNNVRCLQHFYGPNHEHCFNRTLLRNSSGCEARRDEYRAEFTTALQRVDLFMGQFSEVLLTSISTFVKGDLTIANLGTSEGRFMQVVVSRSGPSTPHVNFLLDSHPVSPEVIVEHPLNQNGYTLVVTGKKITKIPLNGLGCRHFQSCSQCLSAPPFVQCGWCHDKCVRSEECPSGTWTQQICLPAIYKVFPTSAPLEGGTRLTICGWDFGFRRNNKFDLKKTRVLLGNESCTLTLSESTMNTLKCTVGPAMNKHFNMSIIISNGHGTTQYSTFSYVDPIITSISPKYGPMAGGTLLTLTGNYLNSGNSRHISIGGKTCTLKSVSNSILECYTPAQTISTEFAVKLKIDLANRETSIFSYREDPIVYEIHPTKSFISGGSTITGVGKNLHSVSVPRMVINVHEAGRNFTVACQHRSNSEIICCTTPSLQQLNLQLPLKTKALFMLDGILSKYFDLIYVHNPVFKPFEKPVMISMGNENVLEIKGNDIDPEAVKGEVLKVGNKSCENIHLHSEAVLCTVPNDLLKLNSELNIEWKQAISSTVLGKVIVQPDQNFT
# [11] = target: Human EGFR antigen (SPR of Example 4.4) (human, UniProt P00533 25-645); assay: SPR method I, antigen on CM5 chip, VHH-His injected, 1:1 model
# [12] = target: Cyno EGFR antigen (SPR of Example 4.4) (cynomolgus monkey, UniProt A0A2K5WK39 25-645); assay: as above
binder,measurement,setting,value
B1,EC50,[1],5.1 nM
same,Maximum MFI value,[1],40400 MFI
B2,EC50,[2],0.809 nM
same,Maximum MFI value,[2],63400 MFI
B3,EC50,[1],4.96 nM
same,Maximum MFI value,[1],38000 MFI
B4,EC50,[1],4.45 nM
same,Maximum MFI value,[1],44700 MFI
B5,EC50,[1],4.16 nM
same,Maximum MFI value,[1],49600 MFI
B6,EC50,[2],0.716 nM
same,Maximum MFI value,[2],73900 MFI
B7,EC50,[3],1.63 nM
same,Maximum MFI value,[3],233000 MFI
B8,EC50,[3],2.5 nM
same,Maximum MFI value,[3],143000 MFI
B9,EC50,[3],1.63 nM
same,Maximum MFI value,[3],194000 MFI
B10,EC50,[4],2.49 nM
same,Maximum MFI value,[4],95800 MFI
same,EC50,[5],3.94 nM
same,Maximum MFI value,[5],84300 MFI
B11,EC50,[5],3.39 nM
same,Maximum MFI value,[5],80100 MFI
B12,EC50,[5],4.96 nM
same,Maximum MFI value,[5],85700 MFI
B13,MFI value at the highest concentration,[6],77200 MFI
same,ratio of MFI value at the highest concentration to that at the lowest concentration,[6],1.14
B14,Maximum MFI value,[5],3570 MFI
B15,Maximum MFI value,[5],4770 MFI
B16,Maximum MFI value,[5],2470 MFI
B17,Kd,[7],0.00135 nM
same,koff,[7],1.25e-07 s⁻¹
same,kon,[7],93200 M⁻¹ s⁻¹
same,Kd,[8],0.0128 nM
same,koff,[8],1.17e-06 s⁻¹
same,kon,[8],91600 M⁻¹ s⁻¹
same,Kd,[9],10.2 nM
same,koff,[9],0.00133 s⁻¹
same,kon,[9],130000 M⁻¹ s⁻¹
same,Kd,[10],6.59 nM
same,koff,[10],0.000789 s⁻¹
same,kon,[10],120000 M⁻¹ s⁻¹
B18,Kd,[7],22.8 nM
same,koff,[7],0.00764 s⁻¹
same,kon,[7],335000 M⁻¹ s⁻¹
same,Kd,[8],28.3 nM
same,koff,[8],0.00943 s⁻¹
same,kon,[8],334000 M⁻¹ s⁻¹
same,Kd,[9],6.61 nM
same,koff,[9],0.00125 s⁻¹
same,kon,[9],189000 M⁻¹ s⁻¹
same,Kd,[10],4.49 nM
same,koff,[10],0.000831 s⁻¹
same,kon,[10],185000 M⁻¹ s⁻¹
B19,Kd,[7],0.0255 nM
same,koff,[7],1.95e-06 s⁻¹
same,kon,[7],76400 M⁻¹ s⁻¹
same,Kd,[8],0.0027 nM
same,koff,[8],2.35e-07 s⁻¹
same,kon,[8],86900 M⁻¹ s⁻¹
same,Kd,[9],14.4 nM
same,koff,[9],0.00167 s⁻¹
same,kon,[9],116000 M⁻¹ s⁻¹
same,Kd,[10],10.2 nM
same,koff,[10],0.0011 s⁻¹
same,kon,[10],108000 M⁻¹ s⁻¹
B20,Kd,[7],37.4 nM
same,koff,[7],0.0162 s⁻¹
same,kon,[7],433000 M⁻¹ s⁻¹
same,Kd,[8],48.9 nM
same,koff,[8],0.0135 s⁻¹
same,kon,[8],276000 M⁻¹ s⁻¹
same,Kd,[9],2.72 nM
same,koff,[9],0.000825 s⁻¹
same,kon,[9],304000 M⁻¹ s⁻¹
same,Kd,[10],1.91 nM
same,koff,[10],0.000381 s⁻¹
same,kon,[10],200000 M⁻¹ s⁻¹
B21,EC50,[4],15 nM
same,Maximum MFI value,[4],111000 MFI
same,Kd,[11],23.2 nM
same,koff,[11],0.00536 s⁻¹
same,kon,[11],232000 M⁻¹ s⁻¹
same,Kd,[12],7.36 nM
same,koff,[12],0.00384 s⁻¹
same,kon,[12],522000 M⁻¹ s⁻¹
